Measurements: PMC13541299
Where “and” joins values, the source holds several entries; their conditions need not be identical. Identical values can stand only once.

Biological target: biotinylated polymerization-blocked yeast αβ-tubulin, LR1 (β: T175R, V179R) (S. cerevisiae) (UniProt P09733)
Test: BLI; biotinylated polymerization-blocked tubulin immobilised on Streptavidin (SA) biosensors (OctetR8), dipped into TOG2 at 2.3 to 200 nM; 100 mM PIPES pH 6.9, 10 mM NaCl, 1 mM MgCl2, 1 mM EGTA, 1 mM GTP, 0.1% BSA, 0.005% Triton X-100; association 300 s, dissociation 300 s; 1:1 model; steady-state amplitudes and global kinetic fit

Kd: 8.9 nM and 9.6 nM | koff: 0.03 s⁻¹ | kon: 3.2e+06 M⁻¹ s⁻¹
B1: Stu2-TOG2 (318–560) (domain or fragment)
chain: MLPEETILDKLPKDFQERITSSKWKDRVEALEEFWDSVLSQTKKLKSTSQNYSNLLGIYGHIIQKDANIQAVALAAQSVELICDKLKTPGFSKDYVSLVFTPLLDRTKEKKPSVIEAIRKALLTICKYYDPLASSGRNEDMLKDILEHMKHKTPQIRMECTQLFNASMKEEKDGYSTLQRYLKDEVVPIVIQIVNDTQPAIRTIGFESFAILIKIFGMNTFVKTLEHLDNLKRKKIEETVKTL
